Assay results reported in the supplement of paper PMC10065799, “High-throughput profiling of sequence recognition by tyrosine kinases and SH2 domains using bacterial peptide display” (eLife, 2023).

Assays:
[1] = system: AncSZ; assay: phosphorylation enrichment, bacterial display (enrichment ratio); higher = better substrate or ligand; peptides without Tyr show the background
[2] = target: EPHB1 (UniProt P54762); assay: as above
[3] = target: EPHB2 (UniProt P29323); assay: as above
[4] = target: FGFR1 (UniProt P11362); assay: as above
Sequence of FGFR1 (P11362 whole entry, looked up): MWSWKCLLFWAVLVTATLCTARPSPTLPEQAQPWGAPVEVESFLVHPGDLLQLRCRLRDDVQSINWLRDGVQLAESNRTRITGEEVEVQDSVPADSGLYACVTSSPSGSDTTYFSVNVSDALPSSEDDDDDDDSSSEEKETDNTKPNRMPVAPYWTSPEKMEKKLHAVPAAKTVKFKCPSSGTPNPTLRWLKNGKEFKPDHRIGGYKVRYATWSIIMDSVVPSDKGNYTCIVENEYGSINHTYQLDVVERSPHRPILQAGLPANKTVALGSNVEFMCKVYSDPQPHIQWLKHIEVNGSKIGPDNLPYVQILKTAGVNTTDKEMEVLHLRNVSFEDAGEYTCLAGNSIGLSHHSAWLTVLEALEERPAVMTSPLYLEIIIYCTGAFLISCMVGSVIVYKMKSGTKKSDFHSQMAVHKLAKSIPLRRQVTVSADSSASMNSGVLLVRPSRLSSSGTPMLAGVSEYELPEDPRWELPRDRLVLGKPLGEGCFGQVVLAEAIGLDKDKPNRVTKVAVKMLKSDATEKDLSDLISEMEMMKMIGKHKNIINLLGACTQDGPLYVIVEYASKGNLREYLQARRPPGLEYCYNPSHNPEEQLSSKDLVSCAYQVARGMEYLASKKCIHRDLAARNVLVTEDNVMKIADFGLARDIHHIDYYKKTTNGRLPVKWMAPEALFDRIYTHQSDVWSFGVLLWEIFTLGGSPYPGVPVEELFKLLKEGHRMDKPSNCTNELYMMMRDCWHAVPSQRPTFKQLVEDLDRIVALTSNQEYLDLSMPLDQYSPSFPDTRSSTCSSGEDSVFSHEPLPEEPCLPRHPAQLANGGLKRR

[5] = target: FGFR3 (UniProt P22607); assay: as above
Sequence of FGFR3 (P22607 whole entry, looked up): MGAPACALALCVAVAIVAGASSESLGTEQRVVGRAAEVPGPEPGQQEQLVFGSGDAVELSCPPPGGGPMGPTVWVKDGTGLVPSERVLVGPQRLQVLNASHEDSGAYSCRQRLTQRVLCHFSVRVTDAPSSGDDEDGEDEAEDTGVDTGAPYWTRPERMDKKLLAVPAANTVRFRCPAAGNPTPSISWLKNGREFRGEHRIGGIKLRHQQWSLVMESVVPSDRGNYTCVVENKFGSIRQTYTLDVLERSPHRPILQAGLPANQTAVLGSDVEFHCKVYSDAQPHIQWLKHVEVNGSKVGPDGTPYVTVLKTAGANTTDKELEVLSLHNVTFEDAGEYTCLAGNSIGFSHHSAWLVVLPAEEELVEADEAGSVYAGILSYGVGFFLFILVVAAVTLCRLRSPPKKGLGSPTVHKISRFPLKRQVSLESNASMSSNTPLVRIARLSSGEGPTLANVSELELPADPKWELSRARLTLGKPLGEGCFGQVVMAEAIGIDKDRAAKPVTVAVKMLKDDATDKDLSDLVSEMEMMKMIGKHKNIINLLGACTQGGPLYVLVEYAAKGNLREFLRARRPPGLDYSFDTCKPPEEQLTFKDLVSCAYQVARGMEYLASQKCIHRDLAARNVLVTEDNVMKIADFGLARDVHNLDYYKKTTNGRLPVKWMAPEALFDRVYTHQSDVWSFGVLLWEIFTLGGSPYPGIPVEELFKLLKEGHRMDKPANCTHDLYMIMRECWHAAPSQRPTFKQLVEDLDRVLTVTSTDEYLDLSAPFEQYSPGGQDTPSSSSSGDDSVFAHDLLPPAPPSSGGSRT

[6] = system: Fer (mouse); assay: as above
[7] = target: Fes (UniProt P07332); assay: as above
Sequence of Fes (P07332 whole entry, looked up): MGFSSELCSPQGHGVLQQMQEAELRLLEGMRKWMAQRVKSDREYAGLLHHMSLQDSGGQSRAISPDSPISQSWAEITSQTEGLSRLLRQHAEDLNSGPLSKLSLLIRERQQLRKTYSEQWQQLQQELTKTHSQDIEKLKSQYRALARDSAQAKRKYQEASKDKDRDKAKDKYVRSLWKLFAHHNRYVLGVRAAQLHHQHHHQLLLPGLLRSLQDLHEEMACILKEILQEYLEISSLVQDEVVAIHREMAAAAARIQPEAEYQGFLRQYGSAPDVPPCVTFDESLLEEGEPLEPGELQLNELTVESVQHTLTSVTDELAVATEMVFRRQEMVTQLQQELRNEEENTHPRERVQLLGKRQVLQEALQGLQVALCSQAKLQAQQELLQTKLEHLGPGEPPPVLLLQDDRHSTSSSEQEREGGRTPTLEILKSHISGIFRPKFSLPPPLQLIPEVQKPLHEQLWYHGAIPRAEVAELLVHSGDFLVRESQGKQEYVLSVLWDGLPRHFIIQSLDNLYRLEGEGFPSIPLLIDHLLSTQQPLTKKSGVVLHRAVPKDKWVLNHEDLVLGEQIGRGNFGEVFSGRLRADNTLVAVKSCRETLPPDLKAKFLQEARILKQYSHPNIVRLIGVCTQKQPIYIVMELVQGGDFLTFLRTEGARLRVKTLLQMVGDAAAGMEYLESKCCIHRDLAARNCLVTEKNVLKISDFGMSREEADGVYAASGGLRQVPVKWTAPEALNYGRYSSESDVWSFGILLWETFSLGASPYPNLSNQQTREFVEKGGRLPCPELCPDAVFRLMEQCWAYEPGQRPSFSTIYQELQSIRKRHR

[8] = target: Fyn (UniProt P06241); assay: as above
[9] = target: Hck (UniProt P08631); assay: as above
[10] = target: Jak2 (UniProt O60674); assay: as above
[11] = target: MERTK (UniProt Q12866); assay: as above
Sequence of MERTK (Q12866 whole entry, looked up): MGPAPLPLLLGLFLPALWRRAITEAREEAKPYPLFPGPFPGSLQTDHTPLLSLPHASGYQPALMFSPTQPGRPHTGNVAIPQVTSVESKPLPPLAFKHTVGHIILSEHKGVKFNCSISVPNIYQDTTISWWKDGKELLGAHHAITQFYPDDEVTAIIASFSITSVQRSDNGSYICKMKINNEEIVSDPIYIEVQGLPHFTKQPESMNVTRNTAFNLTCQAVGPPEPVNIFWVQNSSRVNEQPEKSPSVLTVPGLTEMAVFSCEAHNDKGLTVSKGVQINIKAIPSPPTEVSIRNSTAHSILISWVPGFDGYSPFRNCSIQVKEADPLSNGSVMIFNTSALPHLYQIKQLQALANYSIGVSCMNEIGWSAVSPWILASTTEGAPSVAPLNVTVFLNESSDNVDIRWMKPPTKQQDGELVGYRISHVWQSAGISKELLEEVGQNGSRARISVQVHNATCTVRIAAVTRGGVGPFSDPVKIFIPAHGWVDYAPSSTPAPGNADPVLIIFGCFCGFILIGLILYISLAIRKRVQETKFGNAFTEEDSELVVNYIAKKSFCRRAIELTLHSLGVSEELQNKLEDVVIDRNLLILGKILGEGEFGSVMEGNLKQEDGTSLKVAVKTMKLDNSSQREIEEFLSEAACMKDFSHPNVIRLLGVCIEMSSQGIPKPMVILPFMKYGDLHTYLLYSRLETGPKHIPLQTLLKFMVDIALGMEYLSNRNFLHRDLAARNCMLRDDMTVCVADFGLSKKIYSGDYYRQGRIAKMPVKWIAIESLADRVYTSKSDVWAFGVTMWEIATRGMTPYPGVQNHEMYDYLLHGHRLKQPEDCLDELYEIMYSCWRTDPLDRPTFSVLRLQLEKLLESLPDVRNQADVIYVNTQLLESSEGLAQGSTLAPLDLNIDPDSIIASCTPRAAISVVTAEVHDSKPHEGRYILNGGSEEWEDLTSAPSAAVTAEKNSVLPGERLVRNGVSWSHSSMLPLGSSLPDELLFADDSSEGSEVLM

[12] = system: c-Abl (mouse); assay: as above
[13] = system: c-Src; assay: as above
[14] = target: Grb2 SH2 (UniProt P62993); assay: SH2 binding enrichment of the phosphorylated peptide, bacterial display (enrichment ratio); higher = better substrate or ligand; peptides without Tyr show the background
Sequence of Grb2 SH2 (P62993 whole entry, looked up): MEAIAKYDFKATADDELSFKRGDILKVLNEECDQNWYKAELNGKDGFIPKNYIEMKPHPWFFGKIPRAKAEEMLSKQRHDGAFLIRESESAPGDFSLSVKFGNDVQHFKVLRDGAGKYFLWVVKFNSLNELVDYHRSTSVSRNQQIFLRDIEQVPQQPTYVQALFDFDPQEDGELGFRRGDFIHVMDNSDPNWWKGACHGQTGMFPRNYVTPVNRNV

[15] = target: SHP2-C SH2; assay: as above
[16] = target: c-Src SH2; assay: as above
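Wherever SH2 binding enrichment of the phosphorylated peptide, bacterial display is given: peptide library displayed on the E. coli surface as eCPX fusions, selected cells deep-sequenced, score is each peptide's frequency after selection divided by its frequency in the input.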
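Wherever phosphorylation enrichment, bacterial display is given: 11-residue human phosphosite peptides and single-mutation variants displayed on the E. coli surface, counted by deep sequencing, each peptide's frequency after selection divided by its frequency in the unselected input library; frequency after pTyr selection over input frequency; kinase dosed for 20-30% of maximal phosphorylation in three min.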

Sequence of EPHB2 (P29323 whole entry, looked up): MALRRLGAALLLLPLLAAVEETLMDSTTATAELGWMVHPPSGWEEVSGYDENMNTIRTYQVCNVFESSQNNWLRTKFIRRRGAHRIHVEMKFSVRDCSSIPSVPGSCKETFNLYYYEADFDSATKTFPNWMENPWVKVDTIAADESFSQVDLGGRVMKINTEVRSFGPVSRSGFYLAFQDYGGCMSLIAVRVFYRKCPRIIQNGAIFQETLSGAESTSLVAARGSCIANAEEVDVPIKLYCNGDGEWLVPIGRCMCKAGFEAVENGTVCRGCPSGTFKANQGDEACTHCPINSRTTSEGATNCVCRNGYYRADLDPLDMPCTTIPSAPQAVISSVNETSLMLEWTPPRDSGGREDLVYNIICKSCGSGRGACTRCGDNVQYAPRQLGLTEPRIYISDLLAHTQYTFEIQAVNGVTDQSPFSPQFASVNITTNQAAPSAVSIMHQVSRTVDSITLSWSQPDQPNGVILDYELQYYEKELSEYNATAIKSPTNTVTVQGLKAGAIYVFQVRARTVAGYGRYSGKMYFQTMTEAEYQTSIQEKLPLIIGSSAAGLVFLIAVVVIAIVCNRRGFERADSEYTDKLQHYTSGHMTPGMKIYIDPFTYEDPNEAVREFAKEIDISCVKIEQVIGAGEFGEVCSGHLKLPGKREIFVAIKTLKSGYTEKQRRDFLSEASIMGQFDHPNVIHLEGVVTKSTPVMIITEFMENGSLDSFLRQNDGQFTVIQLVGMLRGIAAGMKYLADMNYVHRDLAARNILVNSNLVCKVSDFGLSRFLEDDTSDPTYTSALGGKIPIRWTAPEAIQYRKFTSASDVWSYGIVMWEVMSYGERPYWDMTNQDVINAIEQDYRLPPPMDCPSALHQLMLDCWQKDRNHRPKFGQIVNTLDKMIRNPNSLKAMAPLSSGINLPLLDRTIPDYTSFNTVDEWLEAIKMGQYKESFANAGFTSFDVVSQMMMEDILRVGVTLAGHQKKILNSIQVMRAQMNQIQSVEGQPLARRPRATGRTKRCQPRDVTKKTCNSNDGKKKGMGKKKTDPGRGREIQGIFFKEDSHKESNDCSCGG

Sequence | phosphorylation enrichment [1] | phosphorylation enrichment [2] | phosphorylation enrichment [3] | phosphorylation enrichment [4] | phosphorylation enrichment [5] | phosphorylation enrichment [6] | phosphorylation enrichment [7] | phosphorylation enrichment [8] | phosphorylation enrichment [9] | phosphorylation enrichment [10] | phosphorylation enrichment [11] | phosphorylation enrichment [12] | phosphorylation enrichment [13] | SH2 binding enrichment [14] | SH2 binding enrichment [15] | SH2 binding enrichment [16]
LNLKDYNLVGG [GNAQ_Y356_E355D] | 0.582 | 0.491 | 0.428 | 0.523 | 0.565 | 0.464 | 0.665 | 0.481 | 0.538 | 0.508 | 0.412 | 0.465 | 0.482 | 0.873 | 0.452 | 0.71
LNPLIYTLKNA [OR4C46_Y285] | 0.602 | 0.762 | 0.603 | 0.73 | 0.886 | 0.545 | 1.08 | 2.17 | 2.31 | 0.343 | 0.463 | 0.474 | 3.03 | 0.642 | 0.891 | 0.42
LRGEDCGFSVD [PRKCI_Y430_Y430C] | 1.94 | 2.18 | 1.14 | 0.847 | 1.41 | 0.886 | 2.77 | 0.631 | 0.987 | 2.49 | 1.25 | 1.97 | 1.48 | 0.925 | 0.615 | 0.841
LRLFSYSTTIR [CYP7B1_Y365_S363F] | 0.815 | 0.654 | 0.45 | 0.357 | 0.773 | 0.457 | 1.09 | 0.421 | 0.57 | 1 | 0.35 | 0.663 | 0.358 | 0.983 | 0.871 | 0.494
LRRFIYRPPDQ [OTOF_Y1231_R1236Q] | 0.675 | 0.409 | 0.606 | 0.443 | 0.397 | 0.445 | 0.606 | 0.479 | 0.493 | 0.502 | 0.516 | 0.333 | 0.318 | 0.595 | 0.391 | 0.359
LRTAVHHEILI [CREBBP_Y1450_Y1450H] | 1.09 | 1.02 | 0.487 | 0.963 | 0.812 | 0.675 | 1.39 | 0.508 | 0.643 | 1.32 | 0.535 | 1.94 | 0.701 | 0.973 | 0.756 | 0.48
LSIDRYHAIVY [NPSR1_Y147] | 0.83 | 0.438 | 0.594 | 3.36 | 1.87 | 0.544 | 1.15 | 0.546 | 0.533 | 1.65 | 0.7 | 0.982 | 0.89 | 1.25 | 1.03 | 5.31
LSSVSYVGCSL [ADGRD1_Y571_I569V] | 1.2 | 0.633 | 1.06 | 0.949 | 1.04 | 0.98 | 1.46 | 1.16 | 1.01 | 1.23 | 1.05 | 1.35 | 1.12 | 0.798 | 0.691 | 0.519
LTEEKYELKEG [TREM1_Y29] | 2.36 | 0.977 | 0.875 | 0.711 | 0.979 | 0.593 | 1.41 | 0.698 | 0.782 | 1.65 | 0.705 | 0.785 | 0.52 | 1.14 | 0.639 | 0.494
LTEHGYSFTTT [ACTB_Y198_R196H] | 2.11 | 0.862 | 0.533 | 0.961 | 1.09 | 0.815 | 1.79 | 0.968 | 0.342 | 1.61 | 0.938 | 1.58 | 1.09 | 0.817 | 0.883 | 1.88
LTERSYSFVTT [ACTA1_Y200_G199S] | 0.951 | 0.543 | 0.984 | 0.973 | 0.718 | 2.92 | 1.24 | 0.622 | 1.04 | 1.03 | 2.56 | 0.889 | 0.856 | 0.945 | 4.37 | 5.24
LTFHMYADPNF [SOS1_Y618_YF] | 1.81 | 1.67 | 1.45 | 0.715 | 1.1 | 0.901 | 1.97 | 0.577 | 0.711 | 1.61 | 0.843 | 1.99 | 0.755 | 0.854 | 0.816 | 6.02
LTSKPYAFTAR [NDUFS1_Y236] | 0.663 | 0.617 | 1.08 | 0.67 | 1.36 | 0.591 | 1.1 | 0.722 | 0.58 | 0.398 | 0.649 | 0.453 | 0.534 | 0.684 | 0.767 | 0.533
LTVVIYVLIGR [EPHA3_Y561] | 1.39 | 1.05 | 1.77 | 0.691 | 1.26 | 1.83 | 2.13 | 0.567 | 0.839 | 0.844 | 0.697 | 1.9 | 0.643 | 1.64 | 1.36 | 0.918
LVMFIYAIFWM [SCN1A_Y1684_G1688W] | 1.07 | 0.525 | 0.491 | 0.566 | 0.626 | 0.531 | 1.05 | 0.563 | 0.558 | 0.963 | 0.527 | 0.739 | 0.5 | 1.3 | 1.76 | 1.21
LVMFTYAIFGM [SCN1A_Y1684_I1683T] | 2.09 | 1.78 | 1.43 | 0.728 | 1.73 | 1.08 | 2.16 | 2.15 | 1.48 | 2.23 | 0.937 | 1.82 | 2.9 | 1.16 | 0.762 | 0.542
LVSCAYQMARG [FGFR1_Y605_V607M] | 1.22 | 0.578 | 0.79 | 0.66 | 0.882 | 0.824 | 2.32 | 0.589 | 0.741 | 0.937 | 0.489 | 0.998 | 1.4 | 0.731 | 0.9 | 0.661

Sequence | phosphorylation enrichment [1] | phosphorylation enrichment [2] | phosphorylation enrichment [3] | phosphorylation enrichment [4] | phosphorylation enrichment [5] | phosphorylation enrichment [6] | phosphorylation enrichment [7] | phosphorylation enrichment [8] | phosphorylation enrichment [9] | phosphorylation enrichment [10] | phosphorylation enrichment [11] | phosphorylation enrichment [12] | phosphorylation enrichment [13] | SH2 binding enrichment [14] | SH2 binding enrichment [15] | SH2 binding enrichment [16]
LYNQDYPIHSV [GATM_Y227] | 1.17 | 0.866 | 1.03 | 2.26 | 1.44 | 0.732 | 1.23 | 1.31 | 0.966 | 0.984 | 0.771 | 0.86 | 0.901 | 1.02 | 0.788 | 0.481
MAPQMYESHLP [NCAPD2_Y6_F8S] | 0.501 | 0.548 | 0.702 | 0.477 | 0.657 | 9.41 | 0.555 | 0.45 | 0.568 | 0.524 | 0.466 | 0.437 | 0.378 | 0.76 | 0.495 | 0.71
MARDISRASYY [ALK_Y1278_Y1278S] | 0.525 | 0.422 | 0.395 | 0.464 | 0.452 | 0.33 | 0.73 | 0.475 | 0.395 | 0.65 | 0.453 | 0.59 | 0.463 | 0.776 | 0.519 | 0.433
MCVKSYTIHFS [F5_Y2153_Y2149C_YF] | 1.47 | 0.718 | 0.622 | 0.525 | 1.01 | 0.552 | 1.41 | 0.489 | 0.546 | 1.05 | 0.448 | 1.02 | 0.565 | 0.841 | 0.617 | 0.485
MDDPRYGMCPL [ZNF100_Y6] | 1.16 | 0.687 | 0.675 | 0.538 | 0.838 | 0.607 | 1.38 | 0.721 | 0.56 | 1.27 | 0.56 | 1.01 | 0.685 | 0.632 | 0.506 | 0.522
MFNPYYGLFEY [NEDD4L_Y680] | 2.18 | 7.89 | 9.35 | 8.53 | 7.3 | 7.76 | 2.16 | 7.66 | 7.23 | 7.13 | 7.1 | 5.87 | 5.76 | 1.56 | 1.64 | 1.75
MHDSNSVSKGS [PDGFRA_Y849_Y849S] | 0.445 | 0.282 | 0.374 | 0.402 | 0.329 | 0.392 | 0.523 | 0.381 | 0.432 | 0.687 | 0.448 | 0.424 | 0.428 | 0.787 | 0.595 | 0.465
MSGDVYSTDFF [NTRK2_Y702_R699G_YF] | 1.08 | 1.02 | 1.32 | 1.42 | 1.18 | 0.775 | 1.06 | 5.33 | 2.4 | 0.959 | 6.82 | 0.736 | 4.62 | 0.701 | 1.15 | 0.526
MSGDVYSTDYY [NTRK2_Y702_R699G] | 1.99 | 1.58 | 1.99 | 3.16 | 2.29 | 0.863 | 1.16 | 4.31 | 2.39 | 1.05 | 6.54 | 0.784 | 4.64 | 0.778 | 0.874 | 0.622
MSLDQYSPSFP [FGFR1_Y776_P772S] | 0.68 | 0.374 | 0.465 | 0.468 | 0.549 | 0.429 | 0.782 | 0.551 | 0.481 | 0.929 | 0.44 | 0.598 | 0.454 | 0.825 | 0.646 | 0.45
MSPPGYKLVNG [GJA1_Y286_T290N] | 0.429 | 0.403 | 0.38 | 0.58 | 0.438 | 0.315 | 0.561 | 0.412 | 0.448 | 0.564 | 0.412 | 0.52 | 0.461 | 0.837 | 0.609 | 0.439
MSSHHYDYKKY [ZNF445_Y428] | 0.503 | 0.394 | 0.375 | 0.338 | 0.46 | 0.408 | 0.513 | 0.415 | 0.421 | 0.441 | 0.339 | 0.438 | 0.383 | 0.799 | 0.692 | 0.64
MVIPNYSSWTE [UROC1_Y185_R188W] | 1.31 | 11.1 | 13.5 | 1.11 | 1.07 | 1.78 | 1.23 | 0.689 | 0.862 | 1.16 | 3.74 | 0.999 | 0.719 | 0.864 | 0.812 | 0.735
NALAQYQEMEK [BBS4_Y395] | 1.1 | 0.466 | 0.471 | 0.594 | 0.658 | 0.454 | 0.967 | 0.545 | 0.612 | 0.714 | 0.467 | 0.512 | 0.366 | 0.795 | 0.808 | 3.07
NDQANYSLNTD [ADA_Y290] | 0.966 | 0.623 | 0.68 | 0.566 | 0.749 | 0.498 | 0.982 | 0.585 | 0.465 | 0.981 | 0.561 | 0.814 | 0.535 | 0.764 | 0.696 | 0.554
NFDRIYIFHLR [MYOF_Y1137_V1136I_YF] | 1.53 | 0.732 | 0.705 | 0.594 | 0.791 | 0.606 | 1.42 | 0.605 | 0.507 | 1.46 | 0.524 | 0.993 | 0.724 | 1.59 | 2.07 | 1.15
